In US20110293511A1, “SPECIFIC BINDING PROTEINS AND USES THEREOF” (priority 2009, published 2011):

Key:
[1] = biological target: wild-type EGFR (wtEGFR) (human) (UniProt P00533); assay: Scatchard, A431 cells
[2] = biological target: wild-type EGFR (wtEGFR) (human) (UniProt P00533); assay: Scatchard, 125I-labeled 528 on A431 cells
[3] = biological target: wild-type EGFR (wtEGFR) (human) (UniProt P00533); assay: immunohistochemistry on glioblastoma tissue; EGFR amplified, no de2-7 EGFR
de2-7 EGFR (human) = de2-7 EGFR (human) (UniProt P00533); assay: immunohistochemistry on glioblastoma tissue; EGFR amplified, de2-7 EGFR expressed

Substance: mAb528 (antibody)
- receptors per cell (receptors per cell) [1]: 2e+06
- binding sites per cell (sites per cell) [2]: 2e+06
- percent of immunoreactive cells (immunohistochemistry) [3]: > 75%
- percent of immunoreactive cells (immunohistochemistry) (de2-7 EGFR (human)): > 75%
